Results as given in patent US20060051395A1 (AFFINERGY, published 2006).
Ends that are not written are not given here.

Molecular target: T1, Bone Morphogenic Protein 2 (BMP-2) (UniProt P12643 283-396)
T1 construct: Bought from Medtronic; In the phage ELISAs it was biotinylated with NHS-biotin (about one biotin per molecule) and held on streptavidin plates; In the peptide assays it was unlabelled
Experiment: estimated affinity from solution-phase binding of biotinylated peptide and BMP-2, capture on streptavidin plate, anti-BMP antibody detection

T1 sequence (P12643 283-396 limits assumed): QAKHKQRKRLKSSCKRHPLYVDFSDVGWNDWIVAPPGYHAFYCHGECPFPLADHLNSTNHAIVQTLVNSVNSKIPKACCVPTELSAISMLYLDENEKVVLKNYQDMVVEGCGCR

Row | Kd [nM] | Binder
1 | 9 | SSSVDLYFPLKGDVVSR (not fully specified (residues 1, 2, 16, 17, C-terminus); also: C-terminal Lys(ε-biotin), linker before it not given here, Synthetic form of the peptide of clone AP02-59; not shown: C-terminal biotinylated lysine; any linker before it is not spelled out for this peptide) [AFF-2012]
2 | 10 | SSFEPLRFPLKGVPVSR (not fully specified (residues 1, 2, 16, 17, C-terminus); also: C-terminal Lys(ε-biotin), linker before it not given here, Synthetic form of the peptide of clone AP02-60; not shown: C-terminal biotinylated lysine; any linker before it is not spelled out for this peptide) [AFF-2009]
